Test results taken from US20150203577A1 (Chugai, published 2015).
Where a chain is given by its changes, count along the chain named.

T1: mouse FcγRII (mouse, UniProt P08101 30-210)
T1 construct: also called mFcγRII; mFcgRII
T1 sequence: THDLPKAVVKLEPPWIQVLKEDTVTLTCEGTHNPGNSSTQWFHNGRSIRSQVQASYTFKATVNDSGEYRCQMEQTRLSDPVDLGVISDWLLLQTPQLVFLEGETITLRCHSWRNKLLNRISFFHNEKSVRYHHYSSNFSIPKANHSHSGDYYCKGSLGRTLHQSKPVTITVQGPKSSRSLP

T2: mouse FcγRIII (mouse, UniProt P08508 31-215)
T2 construct: also called mFcγRIII; mFcgRIII
T2 chain: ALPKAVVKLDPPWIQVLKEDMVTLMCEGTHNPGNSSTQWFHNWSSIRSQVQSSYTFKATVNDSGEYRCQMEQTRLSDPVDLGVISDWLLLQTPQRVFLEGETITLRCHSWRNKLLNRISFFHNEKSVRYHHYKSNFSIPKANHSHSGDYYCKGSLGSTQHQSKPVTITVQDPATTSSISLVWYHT

B1: MB003 (antibody, mouse IgG1, kappa)
heavy: QVQLQESGPGLVKPSETLSLTCAVSGHSISHDHAWSWVRQPPGEGLEWIGFISYSGITNYNPSLQGRVTISRDNSKNTLYLQMNSLRAEDTAVYYCARSLARTTAMDYWGEGTLVTVSSAKTTPPSVYPLAPGSAAQTNSMVTLGCLVKGYFPEPVTVTWNSGSLSSGVHTFPAVLQSDLYTLSSSVTVPSSTWPSETVTCNVAHPASSTKVDKKIVPRDCGCKPCICEVPEVSSVFIFPPKPKDVLTITLTPKVTCVVVDISKDDPEVQFSWFVDDVEVHTAQTQPREEQFNSTFRSVSELPIMHQDWLNGKEFKCRVNSAAFPAPIEKTISKTKGRPKAPQVYTIPPPKEQMAKDKVSLTCMITDFFPEDITVEWQWNGQPAENYKNTQPIMDTDGSYFVYSKLNVQKSNWEAGNTFTCSVLHEGLHNHHTEKSLSHSPGK
light: not shown
notes: copies: 2 + 2
B2: MB111 (antibody, mouse IgG1, kappa)
heavy: B1 heavy with E229T, S235E
light: not shown
notes: copies: 2 + 2
B3: MB025 (antibody, mouse IgG1, kappa)
heavy: B1 heavy with E229T, V230I
light: not shown
notes: copies: 2 + 2
B4: MB028 (antibody, mouse IgG1, kappa)
heavy: B1 heavy with E229T, V230M
light: not shown
notes: copies: 2 + 2
B5: MB020 (antibody, mouse IgG1, kappa)
heavy: B1 heavy with E229T, V230D
light: not shown
notes: copies: 2 + 2
B6: MB139 (antibody, mouse IgG1, kappa)
heavy: B1 heavy with E229T, V236Q
light: not shown
notes: copies: 2 + 2
B7: MB031 (antibody, mouse IgG1, kappa)
heavy: B1 heavy with E229T, V230Q
light: not shown
notes: copies: 2 + 2
B8: MB121 (antibody, mouse IgG1, kappa)
heavy: B1 heavy with E229T, S235Q
light: not shown
notes: copies: 2 + 2
B9: MB132 (antibody, mouse IgG1, kappa)
heavy: B1 heavy with E229T, V236H
light: not shown
notes: copies: 2 + 2
B10: MB030 (antibody, mouse IgG1, kappa)
heavy: B1 heavy with E229T, V230P
light: not shown
notes: copies: 2 + 2
B11: MB143 (antibody, mouse IgG1, kappa)
heavy: B1 heavy with E229T, V236W
light: not shown
notes: copies: 2 + 2
B12: MB021 (antibody, mouse IgG1, kappa)
heavy: B1 heavy with E229T, V230E
light: not shown
notes: copies: 2 + 2
B13: MB126 (antibody, mouse IgG1, kappa)
heavy: B1 heavy with E229T, S235Y
light: not shown
notes: copies: 2 + 2
B14: MB019 (antibody, mouse IgG1, kappa)
heavy: B1 heavy with E229T, V230A
light: not shown
notes: copies: 2 + 2
B15: MB027 (antibody, mouse IgG1, kappa)
heavy: B1 heavy with E229T, V230L
light: not shown
notes: copies: 2 + 2
B16: MB118 (antibody, mouse IgG1, kappa)
heavy: B1 heavy with E229T, S235M
light: not shown
notes: copies: 2 + 2
B17: MB013 (antibody, mouse IgG1, kappa)
heavy: B1 heavy with E229Q
light: not shown
notes: copies: 2 + 2
B18: MB103 (antibody, mouse IgG1, kappa)
heavy: B1 heavy with E229T, S234Q
light: not shown
notes: copies: 2 + 2
B19: MB045 (antibody, mouse IgG1, kappa)
heavy: B1 heavy with E229T, P231L
light: not shown
notes: copies: 2 + 2
B20: MB102 (antibody, mouse IgG1, kappa)
heavy: B1 heavy with E229T, S234P
light: not shown
notes: copies: 2 + 2
B21: MB037 (antibody, mouse IgG1, kappa)
heavy: B1 heavy with E229T, P231A
light: not shown
notes: copies: 2 + 2
B22: MB040 (antibody, mouse IgG1, kappa)
heavy: B1 heavy with E229T, P231F
light: not shown
notes: copies: 2 + 2
B23: MB053 (antibody, mouse IgG1, kappa)
heavy: B1 heavy with E229T, P231W
light: not shown
notes: copies: 2 + 2
B24: MB093 (antibody, mouse IgG1, kappa)
heavy: B1 heavy with E229T, S234E
light: not shown
notes: copies: 2 + 2
B25: MB052 (antibody, mouse IgG1, kappa)
heavy: B1 heavy with E229T, P231V
light: not shown
notes: copies: 2 + 2
B26: MB039 (antibody, mouse IgG1, kappa)
heavy: B1 heavy with E229T, P231E
light: not shown
notes: copies: 2 + 2
B27: MB034 (antibody, mouse IgG1, kappa)
heavy: B1 heavy with E229T, V230T
light: not shown
notes: copies: 2 + 2
B28: MB038 (antibody, mouse IgG1, kappa)
heavy: B1 heavy with E229T, P231D
light: not shown
notes: copies: 2 + 2
B29: MB129 (antibody, mouse IgG1, kappa)
heavy: B1 heavy with E229T, V236E
light: not shown
notes: copies: 2 + 2
B30: MB054 (antibody, mouse IgG1, kappa)
heavy: B1 heavy with E229T, P231Y
light: not shown
notes: copies: 2 + 2
B31: MB016 (antibody, mouse IgG1, kappa)
heavy: B1 heavy with E229V
light: not shown
notes: copies: 2 + 2

What follows are binders tested against T1, mouse FcγRII (assay: SPR Biacore 4000, KD ratio).
Procedure: (§1) Each altered antibody was analyzed for its interaction with each Fcγ receptor prepared above using Biacore T100 (GE Healthcare Japan Corp.), Biacore T200 (GE Healthcare Japan Corp.), Biacore A100, or Biacore 4000. The running buffer used was HBS-EP+ (GE Healthcare Japan Corp.). The assay temperature was set to 25° C. The sensor chips used were chips prepared by immobilizing Protein L (ACTIGEN or BioVision) onto Series S Sensor Chip CM5 (GE Healthcare Japan Corp.) or Series S Sensor Chip CM4 (GE Healthcare Japan Corp.) by the amine coupling method.
(§2) In order to calculate the KD value of each altered antibody for FcγR, kinetic analysis was conducted according to the following method: first, the antibody of interest was captured onto any of these chips and allowed to interact with mFcγR diluted with a running buffer. For the obtained sensorgram, the assay results were globally fit into the 1:1 Langmuir binding model using Biacore Evaluation Software to calculate an association rate constant ka (L/mol/s) and a dissociation rate constant kd (1/s). From these values, the dissociation constant KD (mol/L) was calculated.

Row | relative mFcγRII-binding activity (mIgG1 = 1) [fold] | Binder
1 | 5.06 | B1
2 | 5.01 | B2
3 | 1.19 | B3
4 | 1.83 | B4
5 | 7.97 | B5
6 | 1.54 | B6
7 | 1.99 | B7
8 | 1.48 | B8
9 | 2.12 | B9
10 | 5.26 | B10
11 | 7.42 | B11
12 | 8.52 | B12
13 | 1.58 | B13
14 | 2.7 | B14
15 | 1.88 | B15
16 | 1.74 | B16

Row | relative mFcγRII-binding activity (mIgG1 = 1) [fold] | Binder
17 | 1.2 | B17
18 | 1.27 | B18
19 | 1.2 | B19
20 | 2.62 | B20
21 | 1.54 | B21
22 | 1.47 | B22
23 | 1.36 | B23
24 | 2.09 | B24
25 | 1.36 | B25
26 | 3.27 | B26
27 | 1.25 | B27
28 | 3.15 | B28
29 | 6.19 | B29
30 | 1.75 | B30
31 | 1.15 | B31

Target: T2, mouse FcγRIII
Assay: SPR Biacore 4000, KD ratio
Procedure: as §1, §2

Row | relative mFcγRIII-binding activity (mIgG1 = 1) [fold] | Binder
32 | 1.51 | B1
33 | 1.11 | B2
34 | 1.06 | B3
35 | 1.42 | B4
36 | 2.84 | B5
37 | 1.2 | B6
38 | 1.48 | B7
39 | 0.94 | B8
40 | 1.39 | B9
41 | 2.27 | B10
42 | 6.32 | B11
43 | 3.58 | B12
44 | 0.94 | B13
45 | 1.44 | B14
46 | 1.55 | B15
47 | 0.99 | B16

Row | relative mFcγRIII-binding activity (mIgG1 = 1) [fold] | Binder
48 | 1.07 | B17
49 | 1.05 | B18
50 | 0.9 | B19
51 | 2.37 | B20
52 | 1.22 | B21
53 | 1.17 | B22
54 | 1.02 | B23
55 | 0.56 | B24
56 | 1.2 | B25
57 | 1.29 | B26
58 | 1.12 | B27
59 | 1.37 | B28
60 | 2.42 | B29
61 | 1.11 | B30
62 | 1 | B31
